The source of these data is patent publication US20130323249A1 (published 2013).

The target in one experiment is T1, PD-L1/Fc (human, UniProt Q9NZQ7 19-238, limits assumed).
T1 construct: also called rhPD-L1; not shown: Fc part (detected with anti-human Fc)
As to the kind of experiment: competition ELISA: G12 IgG pre-mixed with PD-L1/Fc, binding to coated PD1/His detected with anti-human Fc HRP. As to the method:
A 96-well ELISA plate was coated with 1 ng/μL PD1/His at 4° C. overnight, then blocked with casein in PBS. […] Transferred 25 μl the mixtures to the ELISA plate and incubated 30 min with shaking. Washed 3 times with PBST. Added HRP conjugated Goat anti-human Fc (1:500 in casein), used TMB as substrate and developed 30 min. 2M H₂SO₄ was added to stop the reaction. Read the OD at 450 nm.

Experiment [1] deals with T2, human PD-L1 expressed on the surface of cells (human, UniProt Q9NZQ7 19-290).
T2 construct: whole, on cells; also called CHO-PD-L1; PD-L1 on ES-2 ovarian carcinoma cells
The experiment is described as follows: flow cytometry (Intellicyt HTFC) on CHO-PD-L1 cells, PE anti-human IgG detection. As to the method:
(§1) After 0.5 hr incubation, cells were washed 1× with FACS Buffer and resuspended in 50 μl PE-conjugated, goat anti-human IgG (γ-chain specific) secondary antibody (Southern Biotech Cat #2040-09). Cells were further incubated for 0.5 hr and then washed 1× with FACS Buffer. Cells were resuspended in 25 μl FACS Buffer and the median fluorescence intensity in the FL2-H channel was determined using the Intellicyt HTFC flow cytometer.

For experiment [2], the target named is T2, human PD-L1 expressed on the surface of …. The experiment is described as follows: flow cytometry (Intellicyt HTFC) on ES-2 ovarian carcinoma cells treated with IFNγ for 18 hr, PE anti-human IgG detection. As to the method: as §1
For the next experiment, the target named is T3, rhPD-L1 (human, UniProt Q9NZQ7 19-238, limits assumed).
T3 construct: also called recombinant human PD-L1
As to the kind of experiment: Biacore SPR, rhPD-L1 immobilized on CM5 chip, antibody in solution, 1:1 Langmuir fit. As to the method: All measurements were conducted in HBS-EP buffer with a flow rate of 30 μL/min. Antibody was diluted so as to obtain a series of concentrations. A 1:1 (Langmuir) binding model was used to fit the data.

Experiment [3] deals with T2, human PD-L1 expressed on the surface of …. As to the kind of experiment: flow cytometry competition: CHO-PD-L1 cells pre-incubated with G12, then rhPD-1-Fc, detected with Alexa-Fluor 647 anti-PD-1 antibody. An excerpt: Data points are shown as the median fluorescence detected in the FL-4H channel +/− Std Error.

T2 sequence (Q9NZQ7 19-290): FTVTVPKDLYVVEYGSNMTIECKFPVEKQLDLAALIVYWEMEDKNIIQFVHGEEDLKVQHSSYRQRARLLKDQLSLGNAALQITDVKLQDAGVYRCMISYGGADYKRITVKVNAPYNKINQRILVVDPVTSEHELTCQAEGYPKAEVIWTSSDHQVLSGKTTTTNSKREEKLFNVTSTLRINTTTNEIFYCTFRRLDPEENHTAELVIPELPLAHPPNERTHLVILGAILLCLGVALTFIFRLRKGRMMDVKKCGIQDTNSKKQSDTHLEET
T3 sequence (Q9NZQ7 19-238 limits assumed): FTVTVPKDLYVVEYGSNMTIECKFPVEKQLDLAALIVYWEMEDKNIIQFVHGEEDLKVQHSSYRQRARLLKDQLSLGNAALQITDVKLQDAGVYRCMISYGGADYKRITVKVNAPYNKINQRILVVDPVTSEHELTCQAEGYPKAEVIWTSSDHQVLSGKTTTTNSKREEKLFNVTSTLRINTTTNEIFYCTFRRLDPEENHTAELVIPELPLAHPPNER
T1 sequence (Q9NZQ7 19-238 limits assumed): as above

B1: G12 anti-PD-L1 antibody (antibody, V domains shown)
VH: EVQLVQSGAEVKKPGASVKVSCKASGYTFTGYYMHWVRQAPGQGLEWMGWINPNSDNTGSAQKFQGRVFMTKTTSLNTAYMELSGLRSEDTAIYYCARERSSGYFDFWGQGTLVTVSS
VL: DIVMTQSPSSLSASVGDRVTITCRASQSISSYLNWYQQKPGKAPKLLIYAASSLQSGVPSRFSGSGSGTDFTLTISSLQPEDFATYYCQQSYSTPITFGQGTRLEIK
notes: Fully human antibody of an IgG class; detected with anti-human IgG gamma-chain specific secondary; also called anti-PD-L1 mAb G12
B1: in the experiment with PD-L1/Fc, the IC50 was found to be 0.0729 nM. This molecule returned an EC50 in experiment [1] of 1.71 nM. The molecule also came in with an EC50 in experiment [2] of 0.0458 nM. In the experiment with rhPD-L1, this molecule gave a Kd of 0.0374 nM, a koff of 0.00049 s⁻¹ and a kon of 1.31e+07 M⁻¹ s⁻¹. This molecule gave an IC50 in experiment [3] of 1.76 nM.
